Measurements from patent US10941182 (Amgen, dated 2021).
Starred links: 1 amine or outer side, 2 acyl side, 3 side chain; linkers in the order of their positions; H or OH if unused. Non-standard residues stand in square brackets, D forms with d. *: point of attachment. AC4Abu = α-carboxy-4-aminobutyric acid, O=C(C(CCN[*:1])C(=O)[*:3])[*:2]; Oic = O=C(O)[C@@H]1C[C@@H]2CCCC[C@@H]2N1; Phe(4-Cl) = N[C@@H](Cc1ccc(Cl)cc1)C(=O)O; dPhe(4-Cl) = N[C@H](Cc1ccc(Cl)cc1)C(=O)O; γGlu = O=C(O)[C@H](CCC(=O)[*:2])N[*:1]; 1Nal = N[C@@H](Cc1cccc2ccccc12)C(=O)O; 2Nal = N[C@@H](Cc1ccc2ccccc2c1)C(=O)O; NMeR = CN[C@@H](CCCNC(=N)N)C(=O)O; Tridecanoyl = CCCCCCCCCCCCC(=O)*; hArg = N=C(N)NCCCC[C@H](N)C(=O)O; Cha = N[C@@H](CC1CCCCC1)C(=O)O; Aic = NC1(C(=O)O)Cc2ccccc2C1; Tle = CC(C)(C)[C@H](N)C(=O)O; β3hP = O=C(O)C[C@@H]1CCCN1; Nle = CCCC[C@H](N)C(=O)O; Deg = CCC(N)(CC)C(=O)O; AEEA = NCCOCCOCC(=O)O; βAla = NCCC(=O)O

T1: human APJ receptor (human, UniProt P35414 1-380)
T1 sequence (looked up): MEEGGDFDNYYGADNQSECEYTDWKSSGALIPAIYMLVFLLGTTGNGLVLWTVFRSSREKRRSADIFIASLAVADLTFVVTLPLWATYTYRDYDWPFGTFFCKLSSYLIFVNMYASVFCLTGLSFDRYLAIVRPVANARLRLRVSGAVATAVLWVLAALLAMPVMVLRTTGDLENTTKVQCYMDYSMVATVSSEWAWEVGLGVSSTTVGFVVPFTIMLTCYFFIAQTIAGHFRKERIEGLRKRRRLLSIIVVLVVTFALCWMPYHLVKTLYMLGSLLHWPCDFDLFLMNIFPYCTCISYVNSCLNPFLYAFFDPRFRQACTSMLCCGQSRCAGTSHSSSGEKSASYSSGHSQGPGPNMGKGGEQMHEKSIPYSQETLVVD

T2: rat APJ receptor (rat, UniProt Q9JHG3 1-377)
T2 sequence (looked up): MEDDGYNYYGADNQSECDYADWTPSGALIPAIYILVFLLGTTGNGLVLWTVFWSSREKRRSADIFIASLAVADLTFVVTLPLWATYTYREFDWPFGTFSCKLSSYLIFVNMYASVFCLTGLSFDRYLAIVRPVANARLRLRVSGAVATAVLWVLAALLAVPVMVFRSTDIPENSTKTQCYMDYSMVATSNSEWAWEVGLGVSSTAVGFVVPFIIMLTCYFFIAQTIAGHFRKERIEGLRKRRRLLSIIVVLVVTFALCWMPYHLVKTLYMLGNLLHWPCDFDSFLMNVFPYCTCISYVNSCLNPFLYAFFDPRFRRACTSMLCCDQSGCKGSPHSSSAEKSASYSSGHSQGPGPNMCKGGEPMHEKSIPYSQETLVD


Legend:
human APJ receptor = target: T1, human APJ receptor; experiment: cell-based or functional assay
rat APJ receptor = target: T2, rat APJ receptor; experiment: cell-based or functional assay

EC50 Human APJ Receptor (GTPγS assay) (human APJ receptor) [nM] | EC50 Rat APJ Receptor (GTPγS assay) (rat APJ receptor) [nM] | Binder
2.84 | 1.5 | Tridecanoyl-[γGlu][AEEA][AEEA][dQ][hArg]P[dR][Cha]SAKG[Oic][Nle]P[Phe(4-Cl)]-OH (SMILES CCCCCCCCCCCCC(=O)N[C@@H](CCC(=O)NCCOCCOCC(=O)NCCOCCOCC(=O)N[C@H](CCC(N)=O)C(=O)N[C@@H](CCCCNC(=N)N)C(=O)N1CCC[C@H]1C(=O)N[C@H](CCCNC(=N)N)C(=O)N[C@@H](CC1CCCCC1)C(=O)N[C@@H](CO)C(=O)N[C@@H](C)C(=O)N[C@@H](CCCCN)C(=O)NCC(=O)N1[C@H](C(=O)N[C@@H](CCCC)C(=O)N2CCC[C@H]2C(=O)N[C@@H](Cc2ccc(Cl)cc2)C(=O)O)C[C@@H]2CCCC[C@@H]21)C(=O)O) [Apelin polypeptide SEQ ID NO: 372]
6 | 20.4 | Tridecanoyl-[γGlu][AEEA][AEEA]Q[hArg]P[dR][Cha]SHKG[Oic][Nle]P[D‑4ClF]-OH [Apelin polypeptide SEQ ID NO: 364]
6.92 | 4.67 | Tridecanoyl-[γGlu][AEEA][AEEA][dQ][hArg]P[dR][Cha]SHK[Tle][Oic][Nle]P[Phe(4-Cl)]-OH [Apelin polypeptide SEQ ID NO: 371]
3.29 | 10.4 | Tridecanoyl-[γGlu][AEEA][AEEA][dQ][hArg]P[NMeR][Cha]SHKG[Oic][Nle][βAla][dPhe(4-Cl)]-OH (SMILES CCCCCCCCCCCCC(=O)N[C@@H](CCC(=O)NCCOCCOCC(=O)NCCOCCOCC(=O)N[C@H](CCC(N)=O)C(=O)N[C@@H](CCCCNC(=N)N)C(=O)N1CCC[C@H]1C(=O)N(C)[C@@H](CCCNC(=N)N)C(=O)N[C@@H](CC1CCCCC1)C(=O)N[C@@H](CO)C(=O)N[C@@H](Cc1c[nH]cn1)C(=O)N[C@@H](CCCCN)C(=O)NCC(=O)N1[C@H](C(=O)N[C@@H](CCCC)C(=O)NCCC(=O)N[C@H](Cc2ccc(Cl)cc2)C(=O)O)C[C@@H]2CCCC[C@@H]21)C(=O)O) [Apelin polypeptide SEQ ID NO: 295]
5.75 | 13.8 | Tridecanoyl-[AC4Abu][AEEA][AEEA]Q[hArg]P[NMeR][Cha]SHKG[Oic][Nle]P[2Nal]-OH (SMILES CCCCCCCCCCCCC(=O)NCCC(C(=O)O)C(=O)NCCOCCOCC(=O)NCCOCCOCC(=O)N[C@@H](CCC(N)=O)C(=O)N[C@@H](CCCCNC(=N)N)C(=O)N1CCC[C@H]1C(=O)N(C)[C@@H](CCCNC(=N)N)C(=O)N[C@@H](CC1CCCCC1)C(=O)N[C@@H](CO)C(=O)N[C@@H](Cc1c[nH]cn1)C(=O)N[C@@H](CCCCN)C(=O)NCC(=O)N1[C@H](C(=O)N[C@@H](CCCC)C(=O)N2CCC[C@H]2C(=O)N[C@@H](Cc2ccc3ccccc3c2)C(=O)O)C[C@@H]2CCCC[C@@H]21) [Apelin polypeptide SEQ ID NO: 405]
2.75 | 2.32 | Tridecanoyl-[γGlu][AEEA][AEEA][dQ][hArg]P[NMeR][Cha]SHKG[Oic][Nle][β3hP][dPhe(4-Cl)]-OH (SMILES CCCCCCCCCCCCC(=O)N[C@@H](CCC(=O)NCCOCCOCC(=O)NCCOCCOCC(=O)N[C@H](CCC(N)=O)C(=O)N[C@@H](CCCCNC(=N)N)C(=O)N1CCC[C@H]1C(=O)N(C)[C@@H](CCCNC(=N)N)C(=O)N[C@@H](CC1CCCCC1)C(=O)N[C@@H](CO)C(=O)N[C@@H](Cc1c[nH]cn1)C(=O)N[C@@H](CCCCN)C(=O)NCC(=O)N1[C@H](C(=O)N[C@@H](CCCC)C(=O)N2CCC[C@H]2CC(=O)N[C@H](Cc2ccc(Cl)cc2)C(=O)O)C[C@@H]2CCCC[C@@H]21)C(=O)O) [Apelin polypeptide SEQ ID NO: 296]
1.97 | 3.75 | Tridecanoyl-[γGlu][AEEA][AEEA]Q[hArg]P[NMeR][Cha]SHKG[Oic][Nle]P[Phe(4-Cl)]-OH (SMILES CCCCCCCCCCCCC(=O)N[C@@H](CCC(=O)NCCOCCOCC(=O)NCCOCCOCC(=O)N[C@@H](CCC(N)=O)C(=O)N[C@@H](CCCCNC(=N)N)C(=O)N1CCC[C@H]1C(=O)N(C)[C@@H](CCCNC(=N)N)C(=O)N[C@@H](CC1CCCCC1)C(=O)N[C@@H](CO)C(=O)N[C@@H](Cc1c[nH]cn1)C(=O)N[C@@H](CCCCN)C(=O)NCC(=O)N1[C@H](C(=O)N[C@@H](CCCC)C(=O)N2CCC[C@H]2C(=O)N[C@@H](Cc2ccc(Cl)cc2)C(=O)O)C[C@@H]2CCCC[C@@H]21)C(=O)O) [Apelin polypeptide SEQ ID NO: 362]
10.4 | 25 | Tridecanoyl-[γGlu][AEEA][AEEA][dQ][hArg]P[dR][Cha]S[Tle]KG[Oic][Nle]P[Phe(4-Cl)]-OH (SMILES CCCCCCCCCCCCC(=O)N[C@@H](CCC(=O)NCCOCCOCC(=O)NCCOCCOCC(=O)N[C@H](CCC(N)=O)C(=O)N[C@@H](CCCCNC(=N)N)C(=O)N1CCC[C@H]1C(=O)N[C@H](CCCNC(=N)N)C(=O)N[C@@H](CC1CCCCC1)C(=O)N[C@@H](CO)C(=O)N[C@H](C(=O)N[C@@H](CCCCN)C(=O)NCC(=O)N1[C@H](C(=O)N[C@@H](CCCC)C(=O)N2CCC[C@H]2C(=O)N[C@@H](Cc2ccc(Cl)cc2)C(=O)O)C[C@@H]2CCCC[C@@H]21)C(C)(C)C)C(=O)O) [Apelin polypeptide SEQ ID NO: 452]
0.095 | 0.275 | XXXQRPRLSHKGPXPF ({TDA}[AC4Abu][Aeea][Aeea]Q[hArg]P[NMeArg]LSHKGP[Nle]P[4-Cl-F]{COOH}) [Apelin polypeptide SEQ ID NO: 353]
0.496 | 0.807 | Tridecanoyl-[γGlu][AEEA][AEEA][dQ][hArg]P[NMeR][Cha]SHKG[Oic][Nle]P[Phe(4-Cl)]-OH (SMILES CCCCCCCCCCCCC(=O)N[C@@H](CCC(=O)NCCOCCOCC(=O)NCCOCCOCC(=O)N[C@H](CCC(N)=O)C(=O)N[C@@H](CCCCNC(=N)N)C(=O)N1CCC[C@H]1C(=O)N(C)[C@@H](CCCNC(=N)N)C(=O)N[C@@H](CC1CCCCC1)C(=O)N[C@@H](CO)C(=O)N[C@@H](Cc1c[nH]cn1)C(=O)N[C@@H](CCCCN)C(=O)NCC(=O)N1[C@H](C(=O)N[C@@H](CCCC)C(=O)N2CCC[C@H]2C(=O)N[C@@H](Cc2ccc(Cl)cc2)C(=O)O)C[C@@H]2CCCC[C@@H]21)C(=O)O) [Apelin polypeptide SEQ ID NO: 478]
11.2 | 31.6 | Tridecanoyl-[γGlu][AEEA][AEEA][dQ][hArg]P[dR][Cha]S[Deg]KG[Oic][Nle]P[Phe(4-Cl)]-OH (SMILES CCCCCCCCCCCCC(=O)N[C@@H](CCC(=O)NCCOCCOCC(=O)NCCOCCOCC(=O)N[C@H](CCC(N)=O)C(=O)N[C@@H](CCCCNC(=N)N)C(=O)N1CCC[C@H]1C(=O)N[C@H](CCCNC(=N)N)C(=O)N[C@@H](CC1CCCCC1)C(=O)N[C@@H](CO)C(=O)NC(CC)(CC)C(=O)N[C@@H](CCCCN)C(=O)NCC(=O)N1[C@H](C(=O)N[C@@H](CCCC)C(=O)N2CCC[C@H]2C(=O)N[C@@H](Cc2ccc(Cl)cc2)C(=O)O)C[C@@H]2CCCC[C@@H]21)C(=O)O) [Apelin polypeptide SEQ ID NO: 451]
26.3 | 67.5 | Tridecanoyl-[γGlu][AEEA][AEEA][dQ][hArg]P[dR][Cha]SHKG[Oic][Nle]P[1Nal]-OH [Apelin polypeptide SEQ ID NO: 367]
23 | 20.7 | Tridecanoyl-[γGlu][AEEA][AEEA][dQ][hArg]P[dR][Cha]SHKG[Oic][Nle]P[Oic]-OH [Apelin polypeptide SEQ ID NO: 365]
0.279 | 0.361 | Tridecanoyl-[γGlu][AEEA][AEEA]Q[hArg]P[NMeR]LSHKG[Oic][Nle]P[Phe(4-Cl)]-OH (SMILES CCCCCCCCCCCCC(=O)N[C@@H](CCC(=O)NCCOCCOCC(=O)NCCOCCOCC(=O)N[C@@H](CCC(N)=O)C(=O)N[C@@H](CCCCNC(=N)N)C(=O)N1CCC[C@H]1C(=O)N(C)[C@@H](CCCNC(=N)N)C(=O)N[C@@H](CC(C)C)C(=O)N[C@@H](CO)C(=O)N[C@@H](Cc1c[nH]cn1)C(=O)N[C@@H](CCCCN)C(=O)NCC(=O)N1[C@H](C(=O)N[C@@H](CCCC)C(=O)N2CCC[C@H]2C(=O)N[C@@H](Cc2ccc(Cl)cc2)C(=O)O)C[C@@H]2CCCC[C@@H]21)C(=O)O) [Apelin polypeptide SEQ ID NO: 354]
17.1 | 23.6 | Tridecanoyl-[γGlu][AEEA][AEEA][dQ][hArg]P[dR][Cha]SHKG[Oic][Nle]P[Aic]-OH [Apelin polypeptide SEQ ID NO: 366]
3.27 | 3.96 | Tridecanoyl-[γGlu][AEEA][AEEA][dQ][hArg]P[dR][Cha]SHKG[Oic][Nle]P[Phe(4-Cl)]-OH [Apelin polypeptide SEQ ID NO: 363]
